What was measured:
Assay in all cases: cytokine release
[1] = target: T1, HIV-1 Nef VY8 variant with Ala at P3 peptide on HLA-B*35:01 (human)
T1 peptide: VPARPMTY

[2] = target: T2, HIV-1 Nef VY8 variant with Phe at P3 peptide on HLA-B*35:01 (human)
T2 peptide: VPFRPMTY

[3] = target: T3, HIV-1 Nef VY8 variant with Leu at P4 peptide on HLA-B*35:01 (human)
T3 peptide: VPLLPMTY

[4] = target: T4, HIV-1 Nef VY8 variant with Val at P3 peptide on HLA-B*35:01 (human)
T4 peptide: VPVRPMTY

[5] = target: T5, HIV-1 Nef VY8 variant with Met at P3 peptide on HLA-B*35:01 (human)
T5 peptide: VPMRPMTY

B1: TCR-139 (A1-T/B11-J1) (TCR)
alpha AV1-1*01 AJ26*01 CDR3: CAVTDNYGQNFVF
beta BV11-2*01 BJ1-1*01 CDR3: CASSLDLVSTEAFF
Question: Does B1 bind [1]?
Answer: Result: recognises

Question: Does B1 bind [2]?
Answer: Result: recognises

Question: Does B1 bind [3]?
Answer: Result: no recognition

Question: Does B1 bind [4]?
Answer: Result: recognises

Question: Does B1 bind [5]?
Answer: Result: recognises

B2: A1-S/B11-J1 (TCR)
alpha AV1-1*01 AJ26*01 CDR3: CAVSDNYGQNFVF
beta BV11-2*01 BJ1-1*01 CDR3: CASSLDLVSTEAFF
Question: Does B2 bind [3]?
Answer: Result: no recognition

B3: H127 (A1-J31/B11) (TCR)
alpha AV1-1*01 AJ31*01 CDR3: CAVTSGDARLMF
beta BV11-1*01 BJ2-7*01 CDR3: CASSSDIVSYEQYF
Question: Does B3 bind [1]?
Answer: Result: no recognition

Question: Does B3 bind [2]?
Answer: Result: no recognition

Question: Does B3 bind [4]?
Answer: Result: no recognition

Question: Does B3 bind [5]?
Answer: Result: recognises
